In article PMC3772987 one finds Kd data, which are given here for two molecules.

One data set has as its target His6-BosR (Borrelia burgdorferi B31, UniProt O51592 2-176). Kind of data set: fluorescence anisotropy.
For a further data set, the target named is BosR tag-free (Borrelia burgdorferi B31, UniProt O51592 1-176, M1R). Description: fluorescence anisotropy.

B1: FPospD (dsDNA)
DNA 1: ATAATTGATATTAAAATATAATTGAT
DNA 2: ATCAATTATATTTTAATATCAATTAT
Take B1: the Kd with His6-BosR was 262 nM; in the data set with BosR tag-free it was 332 nM.

B2: FPospAB (dsDNA)
DNA 1: TAATCTTATAATATAATTATACTT
DNA 2: AAGTATAATTATATTATAAGATTA
Take B2: the results for the dissociation constant (Kd) in the data set with His6-BosR and with BosR tag-free were 222 nM and 307 nM, respectively.
